Non-standard residues stand in square brackets, D forms with d. No end group written: not given here. Ala(1-Me-3-pyridinium) = C[n+]1cccc(C[C@H](N)C(=O)O)c1; Phe(4-guanidino) = N=C(N)Nc1ccc(C[C@H](N)C(=O)O)cc1; Phe(4-CONH2) = NC(=O)c1ccc(C[C@H](N)C(=O)O)cc1; Phe(4-CN) = N#Cc1ccc(C[C@H](N)C(=O)O)cc1; Phe(4-NH2) = Nc1ccc(C[C@H](N)C(=O)O)cc1; Phe(4-F) = N[C@@H](Cc1ccc(F)cc1)C(=O)O; dPhe(4-F) = N[C@H](Cc1ccc(F)cc1)C(=O)O; 1Nal = N[C@@H](Cc1cccc2ccccc12)C(=O)O; 2Nal = N[C@@H](Cc1ccc2ccccc2c1)C(=O)O; dNMeY = CN[C@H](Cc1ccc(O)cc1)C(=O)O; (CH3CH2CH2(CH3))G = N-alkylglycine; Gly(N-cHex) = O=C(O)CNC1CCCCC1; Chg = N[C@H](C(=O)O)C1CCCCC1; Nle = CCCC[C@H](N)C(=O)O; Nphe = O=C(O)CNCc1ccccc1
Target: human factor Xa (Enzyme Research Laboratories, Inc.) (human, UniProt P00742 41-179; P00742 235-488, limits assumed)
Sequence (P00742 41-179 limits assumed, chain 1 of 2): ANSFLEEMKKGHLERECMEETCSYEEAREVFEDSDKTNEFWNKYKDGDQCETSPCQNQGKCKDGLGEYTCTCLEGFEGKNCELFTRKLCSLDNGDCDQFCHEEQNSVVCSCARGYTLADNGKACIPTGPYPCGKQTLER
Sequence (P00742 235-488 limits assumed, chain 2 of 2): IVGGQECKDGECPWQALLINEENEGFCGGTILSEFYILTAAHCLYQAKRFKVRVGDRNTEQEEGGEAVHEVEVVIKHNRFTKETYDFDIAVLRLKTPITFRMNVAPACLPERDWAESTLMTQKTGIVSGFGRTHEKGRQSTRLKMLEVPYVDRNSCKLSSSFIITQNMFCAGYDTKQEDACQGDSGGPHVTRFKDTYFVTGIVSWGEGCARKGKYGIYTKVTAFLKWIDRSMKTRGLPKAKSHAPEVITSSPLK
Assay: chromogenic FXa inhibition
Procedure: TBS-P buffer (50 mM Tris-Cl, pH 7.8, 200 mM NaCl, 0.05% (w/v) PEG-8000, 0.02% (w/v) NaN_3) was used for this assay. The IC$50$ was determined by combining in appropriate wells of a Costar half-area microtiter plate 25 μl human factor Xa (Enzyme Research Laboratories, Inc.; South Bend Ind.) in TBS-P; 40 μl 10% (v/v) DMSO in TBS-P (uninhibited control) or various concentrations of a peptide to be tested diluted in 10% (v/v) DMSO in TBS-P; and substrate S-2765 (Nα-benzyloxycarbonyl-D-Arg-Gly-L-Arg-p-nitroanilide; Kabi Pharmacia, Inc.; Franklin Ohio) in TBS-P.
The assays were performed by pre-incubating the peptide inhibitor plus enzyme for 10 min, then the assay was initiated by adding substrate to obtain a final volume of 100 μl. The initial velocity of chromogenic substrate hydrolysis was measured by the change in absorbance at 405 nm using a Bio-tek Instruments kinetic plate reader (Ceres UV900HDi) at 25° C. during the linear portion of the time course (usually 1–5 min after addition of substrate). The concentration of inhibitor that caused a 50% decrease in the rate of substrate hydrolysis was predicted by linear regression after plotting the relative rates of hydrolysis (compared to the uninhibited control) versus the log of the peptide concentration. The enzyme concentration was 0.5 nM and substrate concentration was 140 μM.

B1: Ac-F(pNH2)-Chg-R-(Chx)G-G-OH (peptide)
peptide: Ac-[Phe(4-NH2)][Chg]R[Gly(N-cHex)]G-OH
SMILES: CC(=O)N[C@@H](Cc1ccc(N)cc1)C(=O)N[C@H](C(=O)N[C@@H](CCCNC(=N)N)C(=O)N(CC(=O)NCC(=O)O)C1CCCCC1)C1CCCCC1
B1 showed a Ki of less than 100 µM.

For Ac-SYIRLP-NH2 [Ac-S-Y-I-R-L-P-NH2], the Ki was less than 100 µM.

Work on GYIRLP-NH2 [G-Y-I-R-L-P-NH2] yielded a Ki of less than 100 µM.

For Ac-YIRLP-NH2 (also: reduced pseudo peptide bond ψ(CH2NH) between Y1 and I2) [Ac-Y-{ψ(CH2NH)}-I-R-L-P-NH2], the Ki was less than 100 µM.

B2: Ac-G-Y-Nle-R-L-NH2 (peptide)
peptide: Ac-GY[Nle]RL-NH2
SMILES: CCCC[C@H](NC(=O)[C@H](Cc1ccc(O)cc1)NC(=O)CNC(C)=O)C(=O)N[C@@H](CCCNC(=N)N)C(=O)N[C@@H](CC(C)C)C(N)=O
Binder B2 has a Ki of less than 100 µM.

In the case of Ac-[2Nal]IRLP-NH2 [Ac-Nal(2)-I-R-L-P-NH2], the Ki is reported as less than 100 µM.

Work on Ac-GGYIRG-NH2 [Ac-G-G-Y-I-R-G-NH2] yielded a Ki of less than 100 µM.

B3: Ac-F(pNH2)-I-R-L-P-NH2 (peptide)
peptide: Ac-[Phe(4-NH2)]IRLP-NH2
SMILES: CC[C@H](C)[C@H](NC(=O)[C@H](Cc1ccc(N)cc1)NC(C)=O)C(=O)N[C@@H](CCCNC(=N)N)C(=O)N[C@@H](CC(C)C)C(=O)N1CCC[C@H]1C(N)=O
B3 showed a Ki of less than 100 µM.

B4: Ac-F(pCN)-I-R-L-P-NH2 (peptide)
peptide: Ac-[Phe(4-CN)]IRLP-NH2
SMILES: CC[C@H](C)[C@H](NC(=O)[C@H](Cc1ccc(C#N)cc1)NC(C)=O)C(=O)N[C@@H](CCCNC(=N)N)C(=O)N[C@@H](CC(C)C)C(=O)N1CCC[C@H]1C(N)=O
Binder B4 has a Ki of less than 100 µM.

With Ac-YIRLP-NH2 [Ac-Y-I-R-L-P-NH2] the Ki was less than 100 µM.

B5: Ac-f(pF)-I-R-L-P-NH2 (peptide)
peptide: Ac-[dPhe(4-F)]IRLP-NH2
SMILES: CC[C@H](C)[C@H](NC(=O)[C@@H](Cc1ccc(F)cc1)NC(C)=O)C(=O)N[C@@H](CCCNC(=N)N)C(=O)N[C@@H](CC(C)C)C(=O)N1CCC[C@H]1C(N)=O
B5 showed a Ki of less than 100 µM.

Work on Ac-YIRGP-NH2 (also: pseudo peptide bond ψ(COCH2) between R3 and G4) [Ac-Y-I-R-{ψ(COCH2)}-G-P-NH2] yielded a Ki of less than 100 µM.

B6: (Me)y-I-R-L-A-NH2 (peptide)
peptide: [dNMeY]IRLA-NH2
modifications: N-terminus assumed
SMILES: CC[C@H](C)[C@H](NC(=O)[C@@H](Cc1ccc(O)cc1)NC)C(=O)N[C@@H](CCCNC(=N)N)C(=O)N[C@@H](CC(C)C)C(=O)N[C@@H](C)C(N)=O
B6 gave a Ki of less than 100 µM.

B7: y-I-R-L-A-NH2 (peptide)
peptide: [dY]IRLA-NH2
modifications: N-terminus assumed
SMILES: CC[C@H](C)[C@H](NC(=O)[C@H](N)Cc1ccc(O)cc1)C(=O)N[C@@H](CCCNC(=N)N)C(=O)N[C@@H](CC(C)C)C(=O)N[C@@H](C)C(N)=O
In the case of B7, the Ki is reported as less than 100 µM.

B8: f-I-R-I-P-NH2 (peptide)
peptide: [dF]IRIP-NH2
modifications: N-terminus assumed
SMILES: CC[C@H](C)[C@H](NC(=O)[C@H](N)Cc1ccccc1)C(=O)N[C@@H](CCCNC(=N)N)C(=O)N[C@H](C(=O)N1CCC[C@H]1C(N)=O)[C@@H](C)CC
B8 gave a Ki of less than 100 µM.

Ac-[dY]IRLA [Ac-y-I-R-L-A] gave a Ki of less than 100 µM.

For Ac-YIRLA (printed without -NH2) [Ac-Y-I-R-L-A], the Ki was less than 100 µM.

For Ac-YIRIP [Ac-Y-I-R-I-P], the Ki was less than 100 µM.

Work on YIRLA-NH2 [Y-I-R-L-A-NH2] yielded a Ki of less than 100 µM.

YIRGA-NH2 [Y-I-R-G-A-NH2] was tested, and the Ki was less than 100 µM.

B9: f-I-R-F-P-NH2 (peptide)
peptide: [dF]IRFP-NH2
modifications: N-terminus assumed
SMILES: CC[C@H](C)[C@H](NC(=O)[C@H](N)Cc1ccccc1)C(=O)N[C@@H](CCCNC(=N)N)C(=O)N[C@@H](Cc1ccccc1)C(=O)N1CCC[C@H]1C(N)=O
In the case of B9, the Ki is reported as less than 100 µM.

With {N‑morpholinyl‑CO}-FIRLP-NH2 [N-morpholinyl-CO-F-I-R-L-P-NH2] the Ki was less than 100 µM.

For YIRIY-NH2 [Y-I-R-I-Y-NH2], the Ki was less than 100 µM.

With [dY]IRGP-NH2 (also: R3-G4 (COCH2) bond replaces peptide bond) [y-I-R(COCH2)-G-P-NH2] the Ki was less than 100 µM.

B10: f(pF)-I-R-L-P-NH2 (peptide)
peptide: [dPhe(4-F)]IRLP-NH2
modifications: N-terminus assumed
SMILES: CC[C@H](C)[C@H](NC(=O)[C@H](N)Cc1ccc(F)cc1)C(=O)N[C@@H](CCCNC(=N)N)C(=O)N[C@@H](CC(C)C)C(=O)N1CCC[C@H]1C(N)=O
B10 showed a Ki of less than 100 µM.

B11: Y-I-R-L-a-NH2 (peptide)
peptide: YIRL[dA]-NH2
modifications: N-terminus assumed
SMILES: CC[C@H](C)[C@H](NC(=O)[C@@H](N)Cc1ccc(O)cc1)C(=O)N[C@@H](CCCNC(=N)N)C(=O)N[C@@H](CC(C)C)C(=O)N[C@H](C)C(N)=O
For B11, the Ki was less than 100 µM.

Ac-YNRLP-NH2 [Ac-Y-N-R-L-P-NH2] showed a Ki of less than 100 µM.

B12: Ac-F(pCONH2)-I-R-L-P-NH2 (peptide)
peptide: Ac-[Phe(4-CONH2)]IRLP-NH2
SMILES: CC[C@H](C)[C@H](NC(=O)[C@H](Cc1ccc(C(N)=O)cc1)NC(C)=O)C(=O)N[C@@H](CCCNC(=N)N)C(=O)N[C@@H](CC(C)C)C(=O)N1CCC[C@H]1C(N)=O
Binder B12 has a Ki of less than 100 µM.

XIRLP (N-term Ac; Y1=Y(Me) O-methyl tyrosine; C-term NH2) [Ac-Y(Me)-I-R-L-P-NH2] gave a Ki of less than 100 µM.

Ac-[1Nal]IRLP-NH2 [Ac-Nal(1)-I-R-L-P-NH2] showed a Ki of less than 100 µM.

B13: Ac-Y-I-PalMe(3)-L-P-NH2 (peptide)
peptide: Ac-YI[Ala(1-Me-3-pyridinium)]LP-NH2
SMILES: CC[C@H](C)[C@H](NC(=O)[C@H](Cc1ccc(O)cc1)NC(C)=O)C(=O)N[C@@H](Cc1ccc[n+](C)c1)C(=O)N[C@@H](CC(C)C)C(=O)N1CCC[C@H]1C(N)=O
Binder B13 has a Ki of less than 100 µM.

Ac-YIRLP-NH2 (also: pseudo peptide bond ψ(CH2N(Ac)) between Y1 and I2) [Ac-Y-{ψ(CH2N(Ac))}-I-R-L-P-NH2] was tested, and the Ki was less than 100 µM.

Ac-WLRLA-NH2 [Ac-W-L-R-L-A-NH2] showed a Ki of less than 100 µM.

B14: w-L-R-V-A-NH2 (peptide)
peptide: [dW]LRVA-NH2
modifications: N-terminus assumed
SMILES: CC(C)C[C@H](NC(=O)[C@H](N)Cc1c[nH]c2ccccc12)C(=O)N[C@@H](CCCNC(=N)N)C(=O)N[C@H](C(=O)N[C@@H](C)C(N)=O)C(C)C
Binder B14 has a Ki of less than 100 µM.

With WLRVA-NH2 [W-L-R-V-A-NH2] the Ki was less than 100 µM.

B15: Ac-F(pNH2)-Chg-R-(Bzl)G-G-OH (peptide)
peptide: Ac-[Phe(4-NH2)][Chg]R[Nphe]G-OH
SMILES: CC(=O)N[C@@H](Cc1ccc(N)cc1)C(=O)N[C@H](C(=O)N[C@@H](CCCNC(=N)N)C(=O)N(CC(=O)NCC(=O)O)Cc1ccccc1)C1CCCCC1
Binder B15 has a Ki of less than 100 µM.

B16: Ac-G-y-Nle-R-L-NH2 (peptide)
peptide: Ac-G[dY][Nle]RL-NH2
SMILES: CCCC[C@H](NC(=O)[C@@H](Cc1ccc(O)cc1)NC(=O)CNC(C)=O)C(=O)N[C@@H](CCCNC(=N)N)C(=O)N[C@@H](CC(C)C)C(N)=O
B16 showed a Ki of less than 100 µM.

B17: Ac-F(pF)-I-R-L-P-NH2 (peptide)
peptide: Ac-[Phe(4-F)]IRLP-NH2
SMILES: CC[C@H](C)[C@H](NC(=O)[C@H](Cc1ccc(F)cc1)NC(C)=O)C(=O)N[C@@H](CCCNC(=N)N)C(=O)N[C@@H](CC(C)C)C(=O)N1CCC[C@H]1C(N)=O
B17 gave a Ki of less than 100 µM.

In the case of Ac-[Phe(4-NH2)][Chg]R[(CH3CH2CH2(CH3))G]G-OH (name runs over rows r100 and r101) [Ac-F(pNH2)-Chg-R-(CH3CH2CH2(CH3))G-G-OH], the Ki is reported as less than 100 µM.

B18: Ac-Phe-(pGua)-I-R-L-P-NH2 (peptide)
peptide: Ac-[Phe(4-guanidino)]IRLP-NH2
SMILES: CC[C@H](C)[C@H](NC(=O)[C@H](Cc1ccc(NC(=N)N)cc1)NC(C)=O)C(=O)N[C@@H](CCCNC(=N)N)C(=O)N[C@@H](CC(C)C)C(=O)N1CCC[C@H]1C(N)=O
Binder B18 has a Ki of less than 100 µM.
